# B1: huA33-IgG1 (H2L2) (antibody, V domains shown)
# VH: EVQLVESGGGLVKPGGSLRLSCAASGFAFSTYDMSWVRQAPGKRLEWVATISSGGSYTYYLDSVKGRFTISRDNAKNSLYLQMNSLRAEDTAVYYCAPTTVVPFAYWGQGTLVTVSS
# VL: DIQMTQSQSSLSTSVGDRVTITCKASQNVRTVVAWYQQKPGKSPKTLIYLASNRHTGVPSRFSGSGSGTEFTLTISNVQPEDFADYFCLQHWSYPLTFGSGTKLEIKR
# notes: Humanized A33 IgG1, version H2L2; also called 3A3-H2L2; 3A3-H2/L2
# B2: huA33-BsAb (bispecific antibody, human IgG1, kappa, N297A)
# heavy: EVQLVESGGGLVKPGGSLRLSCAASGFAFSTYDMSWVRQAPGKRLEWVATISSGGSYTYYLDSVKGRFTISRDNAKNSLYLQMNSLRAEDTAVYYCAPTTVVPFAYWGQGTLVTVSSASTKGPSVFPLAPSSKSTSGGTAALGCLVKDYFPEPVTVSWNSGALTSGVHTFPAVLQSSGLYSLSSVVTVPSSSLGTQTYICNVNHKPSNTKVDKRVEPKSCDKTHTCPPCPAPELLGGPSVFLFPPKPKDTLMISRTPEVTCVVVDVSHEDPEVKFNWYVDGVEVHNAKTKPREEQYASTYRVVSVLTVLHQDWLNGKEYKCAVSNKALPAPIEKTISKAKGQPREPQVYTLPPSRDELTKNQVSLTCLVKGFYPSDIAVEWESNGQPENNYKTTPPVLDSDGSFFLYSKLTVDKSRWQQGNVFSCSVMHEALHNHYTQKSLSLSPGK
# light: DIQMTQSQSSLSTSVGDRVTITCKASQNVRTVVAWYQQKPGKSPKTLIYLASNRHTGVPSRFSGSGSGTEFTLTISNVQPEDFADYFCLQHWSYPLTFGSGTKLEIKRTVAAPSVFIFPPSDEQLKSGTASVVCLLNNFYPREAKVQWKVDNALQSGNSQESVTEQDSKDSTYSLSSTLTLSKADYEKHKVYACEVTHQGLSSPVTKSFNRGECTSGGGGSGGGGSGGGGSQVQLVQSGGGVVQPGRSLRLSCKASGYTFTRYTMHWVRQAPGKCLEWIGYINPSRGYTNYNQKFKDRFTISRDNSKNTAFLQMDSLRPEDTGVYFCARYYDDHYSLDYWGQGTPVTVSSGGGGSGGGGSGGGGSGGGGSGGGGSGGGGSDIQMTQSPSSLSASVGDRVTITCSASSSVSYMNWYQQTPGKAPKRWIYDTSKLASGVPSRFSGSGSGTDYTFTISSLQPEDIATYYCQQWSSNPFTFGCGTKLQITR
# notes: huA33 (H2L2) IgG1 with the humanized OKT3 scFv fused to the C-terminus of the light chain via a (G4S)3 linker; also called T-cell engaging huA33-BsAb; humanized A33-bispecific antibody
# How the values were obtained:
# [1] = molecular target: T1, Human GPA33 (Novoprotein), recombinant protein immobilized on CM5 chips (human, UniProt Q99795 22-235); test: SPR (Biacore T100), GPA33 immobilized on CM5 chip, antibody flowed, 1:1 model; parental huA33 IgG, not the bispecific
# T1 construct: also called GPA33 recombinant protein; Human Glycoprotein A33
# T1 sequence: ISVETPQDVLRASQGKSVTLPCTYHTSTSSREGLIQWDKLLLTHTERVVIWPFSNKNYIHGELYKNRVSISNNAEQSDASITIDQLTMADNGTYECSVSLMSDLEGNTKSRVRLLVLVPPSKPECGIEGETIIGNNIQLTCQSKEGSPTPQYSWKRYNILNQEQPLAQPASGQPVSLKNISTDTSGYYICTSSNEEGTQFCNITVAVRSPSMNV
# Protocol: (§1) SPR analysis. Human GPA33 (Novoprotein, Summit, N.J.) was immobilized on CM5 chips. Five concentrations of 2-fold serially diluted huA33 IgG1 or huA33-BsAbs (starting at 20 nM) were flowed over the chip using a Biacore™ T100 system (GE Healthcare, Chicago, Ill.). Binding kinetics of huA33 were measured at 25° C. and binding kinetics of huA33-BsAbs were measured at both 25° C. and 37° C. The sensorgrams were fitted with 1:1 binding model for both to derive kinetic parameters.
# [2] = molecular target: T1, Human GPA33 (Novoprotein), recombinant …; test: SPR (Biacore T100), GPA33 recombinant protein immobilized on CM5 chip, IgG1 flowed over, 25 °C, 1:1 binding model
# Protocol: as §1
# [3] = molecular target: T1, Human GPA33 (Novoprotein), recombinant …; test: SPR (Biacore T100), GPA33 recombinant protein immobilized on CM5 chip, antibody flowed over
# [4] = molecular target: T1, Human GPA33 (Novoprotein), recombinant …; test: SPR (Biacore T100), human GPA33 immobilized on CM5 chip, huA33-BsAb flowed over, 37 °C, 1:1 binding model [contd.) C]
# Protocol: as §1
# [5] = molecular target: T2, GPA33 on the surface of human colon and gastric cancer cell lines (human, UniProt Q99795 22-319); test: FACS staining of SW1222 colon cancer cells with titrated huA33-BsAb, geometric mean MFI [contd.) D]
# T2 construct: whole, on cells; Endogenous antigen on tumor cell lines stained in FACS and used as targets in TDCC assays; also called target antigens on colon cancer cells
# T2 sequence (looked up): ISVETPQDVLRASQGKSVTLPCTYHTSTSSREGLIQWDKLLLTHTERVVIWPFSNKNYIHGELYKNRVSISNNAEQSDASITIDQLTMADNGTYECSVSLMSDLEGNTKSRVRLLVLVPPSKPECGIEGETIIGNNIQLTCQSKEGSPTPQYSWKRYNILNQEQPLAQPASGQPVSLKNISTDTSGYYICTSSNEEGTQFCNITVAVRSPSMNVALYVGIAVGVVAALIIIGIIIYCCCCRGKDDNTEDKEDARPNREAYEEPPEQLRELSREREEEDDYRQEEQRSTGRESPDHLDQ
# [6] = molecular target: T1, Human GPA33 (Novoprotein), recombinant …; test: SPR, GPA33 immobilized on CM5 chip, parental huA33-BsAb; temperature not given for this table; the KD column head prints no unit
# Protocol: as §1
# [7] = molecular target: T2, GPA33 on the surface of human colon and …; test: cell-based or functional assay
# [8] = molecular target: T1, Human GPA33 (Novoprotein), recombinant …; test: SPR (Biacore T100), human GPA33 immobilized on CM5 chip, huA33-BsAb flowed over, 25 °C, 1:1 binding model [contd.) C]
# Protocol: as §1
# [9] = molecular target: T1, Human GPA33 (Novoprotein), recombinant …; test: SPR (Biacore T100), GPA33 immobilized on CM5 chip, antibody flowed, 1:1 model; measured at 25 C and 37 C; bispecific huA33-BsAb; GPA33 immobilized on CM5 chip; apparent affinity (avidity)
# Protocol: as §1
# [10] = molecular target: T1, Human GPA33 (Novoprotein), recombinant …; test: SPR (Biacore T100), human GPA33 immobilized on CM5 chip, huA33-BsAb flowed over, 25 °C, 1:1 binding model; the KD column head prints no unit, M follows from the ka and kd units [contd.) C]
# Protocol: as §1
# [11] = molecular target: T1, Human GPA33 (Novoprotein), recombinant …; test: SPR, parental huA33-BsAb, the reference of the column
# [12] = molecular target: T1, Human GPA33 (Novoprotein), recombinant …; test: SPR (Biacore T100), human GPA33 immobilized on CM5 chip, huA33-BsAb flowed over, 37 °C, 1:1 binding model; the KD column head prints no unit, M follows from the ka and kd units [contd.) C]
# Protocol: as §1
Binder,Kd [1] [nM],Kd [2] [nM],koff [2] [s⁻¹],kon [2] [M⁻¹ s⁻¹],Kd [3] [nM],koff [3] [s⁻¹],kon [3] [M⁻¹ s⁻¹],koff [4] [s⁻¹],kon [4] [M⁻¹ s⁻¹],EC50 (read off the curve) [5] [µg],Kd [6] [nM],"EC50 of T-cell dependent cytotoxicity against Colo205 cells (sorted fresh CD4 memory T cells, E:T=5:1, 48 hours, LDH assay) [7] [nM]",koff [8] [s⁻¹],kon [8] [M⁻¹ s⁻¹],Kd [9] [nM],Kd [10] [nM],Fold difference/Parental [11] [fold],Kd [12] [nM]
B1,0.13,0.169,0.000363,2.15e+06,0.169,0.000363,2.15e+06,–,–,–,–,–,–,–,–,–,–,–
B2,–,–,–,–,–,–,–,0.00167,6.81e+06,~0.3,0.168,0.025,0.000478,2.25e+06,~0.2,0.212,1,0.245

# Source: US20200291112A1 (Memorial Sloan Kettering, published 2020)
